B1: LuxSit-i: LuxSit variant R60S/A96L/M110V, SEQ ID NO:2, named for high brightness (protein)
chain: MSEEQIRQFLRRFYEALDSGDADTAASLFHPGVTIHLWDGVTFTSREEFREWFERLFSTSKDAQREIKSLEVRGDTVEVHVQLHATHNGQKHTVDLTHHWHFRGNRVTEVRVHINPTG
modifications: VARIANT 1 optionally absent; VARIANT 118 optionally absent

What was measured:
[1] = target: T1, native Renilla reniformis luciferase (RLuc) (Renilla reniformis, UniProt P27652); experiment: Michaelis-Menten kinetics of native Renilla luciferase (RLuc) with CTZ; assay type: biochemical; settings: substrate CTZ; Table 3
T1 construct: host and tag of RLuc not clearly stated
T1 sequence (P27652 1-311): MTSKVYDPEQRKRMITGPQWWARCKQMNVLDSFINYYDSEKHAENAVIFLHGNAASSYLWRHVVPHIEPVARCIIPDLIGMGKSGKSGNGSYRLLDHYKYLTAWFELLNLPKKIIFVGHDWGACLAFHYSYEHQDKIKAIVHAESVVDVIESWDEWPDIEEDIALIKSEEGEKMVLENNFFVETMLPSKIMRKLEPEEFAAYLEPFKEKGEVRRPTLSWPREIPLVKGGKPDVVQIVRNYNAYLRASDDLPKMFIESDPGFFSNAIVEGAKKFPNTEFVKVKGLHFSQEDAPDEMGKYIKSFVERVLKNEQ
Source text: Synthetic genes and oligonucleotides were purchased from Integrated DNA Technologies or GenScript. The synthetic gene was inserted between NdeI and XhoI sites of a pET29b+ vector, containing an N-terminal hexahistidine tag followed by a TEV protease cleavage site and a C-terminal stop codon. Restriction endonucleases, Q5 PCR polymerase, and T4 ligase were purchased from NEB. Plasmid DNA, PCR products, or digested fragments were purified by Qiagen DNA purification kits. DNA sequences were analyzed by Genewiz. Coelenterazine (CTZ) was purchased from Gold Biotechnology. Diphenylterazine (DTZ), pyridyl diphenylterazine (8pyDTZ), and Furimazine (FRZ) were purchased from MedChemExpress. […] DNA and protein concentrations were determined by a NanoDrop™ small-volume 8 channel UV/vis spectrometer. […] All luminescence measurements were acquired by a Biotek Synergy Neo2T™ Multi-Mode Plate Reader. To convert relative arbitrary unit (RLU) to the number of photons, Neo2 plate reader was calibrated by determining the chemiluminescence of luminol with known quantum yield in the presence of horseradish peroxidase and hydrogen peroxide in K2CO3 aqueous solution as previously described^45. SDS PAGE and luminescence images were captured by a Bio-Rad ChemiDocT™ XRS+. Images were analyzed using the Fiji image analysis software. […]

[2] = Substrate specificity on coelenterazine substrate analogs; assay type: biochemical
Description: FIG. 4. High substrate specificity of designed luciferases allows multiplexed bioassay. (a) Chemical structures of Coelenterazine substrate analogs. (b) Activity of LuxSit-i on selected luciferin substrates. Luminescence image (top) and signal quantification (bottom) of the indicated substrate in the presence of 100 nM LuxSit-i. LuxSit-i has high specificity for the design target substrate, DTZ. (c) Heatmap visualization of the substrate specificity of LuxSit-i. Renilla luciferase (RLuc), Gaussia luciferase (GLuc), engineered NLuc from Oplophorus luciferase. […] (d) Luminescence emission spectrum of LuxSit-i/DTZ and RLuc/PP-CTZ can be spectrally resolved by 528/20 and 390/35 filters (shown in dashed bars) and only recognize the cognate substrate. (e) Schematic of the multiplex luciferase assay. […] (f-g) Luminescence signals from cells can be measured under either substrate-resolved or spectrally resolved methods by a plate reader. (f) For the substrate-resolved method, luminescence intensity was recorded without a filter after adding either PP-CTZ or DTZ. […] Luminescence signals were acquired from the lysate of 15,000 cells in CelLytic™ M reagent while CyOFP fluorescence signal was used to normalize cell numbers and transfection efficiencies. […]

[3] = Luciferase activities of re-designed sequences based on LuxSit-i (Table 1); assay type: biochemical; settings: LuxSit-f and re-designed sequences based on LuxSit-i (Table 1)
Source text: In another embodiment, the proteins comprise an amino acid sequence at least 30%, 35%, 40%, 45%, 50%, 55%, 60%, 65%, 70%, 75%, 80%, 85%, 90%, 91%, 92%, 93%, 94%, 95%, 96%, 97%, 98%, 99%, or 100% identical to the amino acid selected from the group consisting of SEQ ID NO:1-181, as shown in Table 1. SEQ ID NO:5-181 in Table 1 are re-designed amino acid sequences based on LuxSit-i (SEQ ID NO:2), with their luciferase activities shown.

[4] = Luminescence decay curves of LuxSit-i in various pH buffers; assay type: biochemical
Description: (§1) FIG. 10. Additional characterization of LuxSit variants. (a) Normalized emission kinetics of 15,000 intact HeLa cells expressing LuxSit-i, 100 nM purified LuxSit-i, or 100 nM purified LuxSit-f in the presence of 50 μM DTZ. The more extended emission kinetics in HeLa cells is likely due to the diffusion rate of DTZ across cell membranes. […] (c) Luminescent quantum yield was estimated from the integrated luminescence signal until completely converting 125 pmol substrates to photons in the presence of 50 nM corresponding luciferase (see Methods). All data points were plotted as the average of triplicate measurements.

[5] = Michaelis-Menten kinetics measurements of purified luciferases; assay type: biochemical
Description: For Michaelis-Menten kinetics measurements, 25 μL of serial diluted DTZ substrate in Tris pH 8.0 buffer was added into the wells of a white 96-well half-area microplate containing 25 μL of purified luciferases (final enzyme concentration: 100 nM; substrate concentration: 0.78 to 50 μM). Measurements were taken every 1 min (0.1 s integration and 10 s shaking between each interval) for a total of 20 min. Initial velocities were estimated as the average of the light intensities from the first three data points to fit the Michaelis-Menten equation. All relative arbitrary unit (RLU) per second values were converted to photon/s by the luminol-H2O2—HRP calibration method^45. Following the equation: Imax=LQY×kcat×[E], Imax is the maximal photon flux (photon s^−1), [E] is the total enzyme concentration, and V ax is the maximum photon flux per molecule (photon s^−1 molecule^−1) from the fitting of the Michaelis-Menten equation. To determine the luminescent quantum yields, 25 μL of 5 μM individual substrate in PBS was injected into 25 μL PBS containing 100 nM corresponding luciferase. DTZ was used for all LuxSit variants while CTZ was used as the substrate of native RLuc. The luminescence signals were monitored until the reactions were completed (0.1 s integration and measurements were taken every 5 s for a total of 40 min). […] To record emission spectra, 25 μL of 50 μM DTZ in PBS were injected into 25 μL of 200 nM pure luciferases and the emission spectra were collected with 0.1 s integration and 2 nm increments from 300 to 700 num. In vitro luminescence activity measurements of LuxSit-i expressing HEK293T or HeLa cells were done similarly as 15,000 intact cells or lysates were used in the assay instead of purified luciferases. To evaluate the substrate specificity, 25 μL of 50 μM substrate analogs in PBS were added to 25 μL of 200 nM indicated luciferases, and the signals were recorded over 20 min. Data were shown as the total luminescence signal over the first 10 min. We normalized the data by setting the highest emission substrate at 100%.

[6] = Circular dichroism spectra and thermal denaturation; assay type: physicochemical; settings: 220 nm, 25° C. to 95° C.
Source text: Synthetic genes and oligonucleotides were purchased from Integrated DNA Technologies or GenScript. The synthetic gene was inserted between NdeI and XhoI sites of a pET29b+ vector, containing an N-terminal hexahistidine tag followed by a TEV protease cleavage site and a C-terminal stop codon. Restriction endonucleases, Q5 PCR polymerase, and T4 ligase were purchased from NEB. Plasmid DNA, PCR products, or digested fragments were purified by Qiagen DNA purification kits. DNA sequences were analyzed by Genewiz. Coelenterazine (CTZ) was purchased from Gold Biotechnology. Diphenylterazine (DTZ), pyridyl diphenylterazine (8pyDTZ), and Furimazine (FRZ) were purchased from MedChemExpress. […] DNA and protein concentrations were determined by a NanoDrop™ small-volume 8 channel UV/vis spectrometer. […] All luminescence measurements were acquired by a Biotek Synergy Neo2T™ Multi-Mode Plate Reader. To convert relative arbitrary unit (RLU) to the number of photons, Neo2 plate reader was calibrated by determining the chemiluminescence of luminol with known quantum yield in the presence of horseradish peroxidase and hydrogen peroxide in K2CO3 aqueous solution as previously described^45. SDS PAGE and luminescence images were captured by a Bio-Rad ChemiDocT™ XRS+. Images were analyzed using the Fiji image analysis software.
Purified protein samples were prepared at 15 μM in pH 7.4 10 mM phosphate buffer. Spectra from 190 nm to 260 nm were recorded at 25° C., 50° C., 75° C., 95° C., and after cooling back to 25° C. Thermal denaturation was monitored at 220 nm from 25° C. to 95° C. […]

[7] = Luminescent quantum yield of LuxSit variants; assay type: biochemical; settings: consuming 125 pmol of DTZ in PBS with 50 nM recombinant luciferase; estimated relative to reported quantum yield of RLuc; mean ± s.d., n = 3
Description: as §1
For Michaelis-Menten kinetics measurements, 25 μL of serial diluted DTZ substrate in Tris pH 8.0 buffer was added into the wells of a white 96-well half-area microplate containing 25 μL of purified luciferases (final enzyme concentration: 100 nM; substrate concentration: 0.78 to 50 μM). […] The luminescence signals were monitored until the reactions were completed (0.1 s integration and measurements were taken every 5 s for a total of 40 min). […] In vitro luminescence activity measurements of LuxSit-i expressing HEK293T or HeLa cells were done similarly as 15,000 intact cells or lysates were used in the assay instead of purified luciferases. […] Data were shown as the total luminescence signal over the first 10 min. […]

| Molecule | Vmax [1] | higher photon flux over LuxSit (25 μM DTZ) | Relative emission intensity (integrated luminescence intensity over the first 20 min, normalized to LuxSit, 25 μM DTZ in Tris pH 8.0 buffer) | selectivity for DTZ over bis-CTZ [2] | Activity [3] | pH dependence of DTZ luminescent reaction [4] | photon flux (photon s^−1) greater than native Renilla reniformis luciferase (RLuc) [5] | thermal stability (CD melting) [6] | LQY (luminescent quantum yield) [7] |
| --- | --- | --- | --- | --- | --- | --- | --- | --- | --- |
| Oc1ccc(Cc2nc3c(Cc4ccccc4)nc(-c4ccc(O)cc4)cn3c2O)cc1 [CTZ, Coelenterazine] | 0.26 photon s^−1 molecule^−1 |  |  |  |  |  |  |  |  |
| B1 |  | more than 100 fold | 153 | 50 fold | 763.6 | pH-dependent | 38% | thermostable | 14.5 ± 1.8% |

From patent US20250075190A1, “DE NOVO DESIGNED LUCIFERASE” (UNIVERSITY OF WASHINGTON, priority 2022, published 2025)
